Test results from paper PMC9519379 (Cell Reports Medicine, 2022).

Molecular target: SARS-CoV-2 Spike Trimer (B.1.617.2/Delta) (SARS-CoV-2) (UniProt P0DTC2)
Assay: single-molecule force spectroscopy

H84T-banana lectin (H84T-BanLec) (from UniProt Q8L5H4 1-141) (designed binder)
IC50: 3.9 nM
